System: GST-EZH2
Assay: Alpha assay (saturation)
Settings: RNA-protein binding buffer: 50 mM Tris-HCl pH 7.9, 10 mM beta-ME, 10% glycerol, 5 mM MgCl2, 100 mM KCl, 0.1% NP-40; EMSA 1 h at RT, 1 ug His-EZH2, 0.035 pmol …

LINC00301 (Alpha assay)
K half: 228 nM

— publication PMC7466809
